# Reference: article PMC4526461 (The Biochemical journal, 2015)
# Where “and” joins values, the source holds several entries; their conditions need not be identical. Equal values may be shown once.
# Target: the molecule itself
# Experiment: non-reducing SDS/PAGE and Western blot
Protein,stoichiometry N,decrease in multimer to monomer ratio against wild-type
"recombinant mouse neutral sphingomyelinase-2 with C-terminal FLAG and 6xHis tags (pET-32a-nSMase-2-FLAG-6xHis), expressed in Rosetta2 (DE3) pLysS (enzyme, UniProt Q9JJY3 1-655, looked up) MVLYTTPFPNSCLSALHAVSWALIFPCYWLVDRLLASFIPTTYEKRQRADDPCCLQLFCTVLFTPVYLALLVAALPFAFLGFIFWSPLQSARRPYSYSRLEDKNPAGGAALLSEWKGTGAGKSFCFATANVCLLPDSLARLNNVFNTQARAKEIGQRIRNGAARPQIKIYIDSPTNTSISAASFSSLVSPQGGDGSRAVPGSIKRTASVEYKGDGGRHPSDEAANGPASGEQADGSLEDSCIVRIGGEEGGRPQEADDPAAGSQARNGAGGTPKGQTPNHNQRDGDSGSLGSPSASRESLVKARAGQDSGGSGEPGANSKLLYKTSVVKKAAARRRRHPDEAFDHEVSAFFPANLDFLCLQEVFDKRAAAKLKEQLHGYFEYILYDVGVYGCHGCCNFKCLNSGLFFASRYPVMDVAYHCYPNGCSFDALASKGALFLKVQVGSTPQDQRIVGYIACTHLHAPPEDSAVRCEQLDLLQDWLADFRKSTSSTSTANPEELVVFDVICGDLNFDNCSSDDKLEQQHSLFTRYKDPCRLGPGEEKPWAIGTLLDTNGLYDEDVCTPDNLQKVLESEEGRREYLAFPTSKSPGAGQKGRKDLLKGNGRRIDYMLHAEEGLCPDWKAEVEEFSFITQLSGLTDHLPVAMRLMVSAGEEEA",2 and 3,
"nSMase-2 single-point mutant Cys617Ser (enzyme, mouse, UniProt Q9JJY3 1-655, looked up) MVLYTTPFPNSCLSALHAVSWALIFPCYWLVDRLLASFIPTTYEKRQRADDPCCLQLFCTVLFTPVYLALLVAALPFAFLGFIFWSPLQSARRPYSYSRLEDKNPAGGAALLSEWKGTGAGKSFCFATANVCLLPDSLARLNNVFNTQARAKEIGQRIRNGAARPQIKIYIDSPTNTSISAASFSSLVSPQGGDGSRAVPGSIKRTASVEYKGDGGRHPSDEAANGPASGEQADGSLEDSCIVRIGGEEGGRPQEADDPAAGSQARNGAGGTPKGQTPNHNQRDGDSGSLGSPSASRESLVKARAGQDSGGSGEPGANSKLLYKTSVVKKAAARRRRHPDEAFDHEVSAFFPANLDFLCLQEVFDKRAAAKLKEQLHGYFEYILYDVGVYGCHGCCNFKCLNSGLFFASRYPVMDVAYHCYPNGCSFDALASKGALFLKVQVGSTPQDQRIVGYIACTHLHAPPEDSAVRCEQLDLLQDWLADFRKSTSSTSTANPEELVVFDVICGDLNFDNCSSDDKLEQQHSLFTRYKDPCRLGPGEEKPWAIGTLLDTNGLYDEDVCTPDNLQKVLESEEGRREYLAFPTSKSPGAGQKGRKDLLKGNGRRIDYMLHAEEGLSPDWKAEVEEFSFITQLSGLTDHLPVAMRLMVSAGEEEA",,~50%
"nSMase-2 single-point mutant Cys561Ser (enzyme, mouse, UniProt Q9JJY3 1-655, looked up) MVLYTTPFPNSCLSALHAVSWALIFPCYWLVDRLLASFIPTTYEKRQRADDPCCLQLFCTVLFTPVYLALLVAALPFAFLGFIFWSPLQSARRPYSYSRLEDKNPAGGAALLSEWKGTGAGKSFCFATANVCLLPDSLARLNNVFNTQARAKEIGQRIRNGAARPQIKIYIDSPTNTSISAASFSSLVSPQGGDGSRAVPGSIKRTASVEYKGDGGRHPSDEAANGPASGEQADGSLEDSCIVRIGGEEGGRPQEADDPAAGSQARNGAGGTPKGQTPNHNQRDGDSGSLGSPSASRESLVKARAGQDSGGSGEPGANSKLLYKTSVVKKAAARRRRHPDEAFDHEVSAFFPANLDFLCLQEVFDKRAAAKLKEQLHGYFEYILYDVGVYGCHGCCNFKCLNSGLFFASRYPVMDVAYHCYPNGCSFDALASKGALFLKVQVGSTPQDQRIVGYIACTHLHAPPEDSAVRCEQLDLLQDWLADFRKSTSSTSTANPEELVVFDVICGDLNFDNCSSDDKLEQQHSLFTRYKDPCRLGPGEEKPWAIGTLLDTNGLYDEDVSTPDNLQKVLESEEGRREYLAFPTSKSPGAGQKGRKDLLKGNGRRIDYMLHAEEGLCPDWKAEVEEFSFITQLSGLTDHLPVAMRLMVSAGEEEA",,~50%
